# Assay results as given in patent publication US20220125891.
# Tested on: T1, FLAG-tagged Regnase-1 AA mutant (S435A/S439A) from Regnase-1-deficient MEFs
# T1 sequence: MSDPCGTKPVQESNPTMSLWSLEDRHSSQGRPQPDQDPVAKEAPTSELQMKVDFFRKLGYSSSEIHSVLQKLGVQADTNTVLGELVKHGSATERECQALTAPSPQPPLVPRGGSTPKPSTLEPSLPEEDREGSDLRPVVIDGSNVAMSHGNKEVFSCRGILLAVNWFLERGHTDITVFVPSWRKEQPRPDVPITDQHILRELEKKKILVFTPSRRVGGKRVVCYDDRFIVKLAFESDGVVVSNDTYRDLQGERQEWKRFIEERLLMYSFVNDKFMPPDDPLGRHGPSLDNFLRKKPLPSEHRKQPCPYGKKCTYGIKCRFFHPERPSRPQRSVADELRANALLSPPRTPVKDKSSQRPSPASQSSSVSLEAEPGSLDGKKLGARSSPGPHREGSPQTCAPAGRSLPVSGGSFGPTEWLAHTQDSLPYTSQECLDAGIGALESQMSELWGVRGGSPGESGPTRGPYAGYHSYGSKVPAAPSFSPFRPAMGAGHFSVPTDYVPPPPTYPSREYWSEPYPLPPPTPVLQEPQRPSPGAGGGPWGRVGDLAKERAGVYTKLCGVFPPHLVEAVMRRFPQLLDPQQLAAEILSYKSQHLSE
row,Substance,"in vitro phosphorylation (mobility shift by immunoblotting, 32P autoradiography)"
1,GST-tagged IKKi (Thermo Fisher Scientific),Phosphorylation of recombinant Regnase-1 by recombinant TBK1 and/or IKKi under in vitro conditions was detected
2,GST-tagged TBK1 (Sigma),Phosphorylation of recombinant Regnase-1 by recombinant TBK1 and/or IKKi under in vitro conditions was detected
